This series is described as follows: amyloid nucleation score (Sup35N fusion, yeast selection) (log enrichment); library NNK3; higher = more nucleation; inactive = no reads after selection. The method, boiled down: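 Nucleation score: DiMSum log enrichment of output over input reads, centred on the mode score of non-aggregating sequences. Only sequences with at least 100 input reads were kept. Reads came from Illumina sequencing of plasmid inserts before and after 7 days of growth at 30°C without adenine and uracil, in psi-negative yeast expressing Sup35N fused to peptides of 20 random codons after 24 hours of induction with 100 μM copper sulfate.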

± gives the uncertainty stated by the source.

As for RSYVTILDAFSWIM, the amyloid nucleation score is -0.239 ± 0.66.

Take NIRYVWCQKRLTCARSWNPV: the amyloid nucleation score result is “inactive”.

FFNSVMIYGWS: the amyloid nucleation score is 0.07 ± 0.3.

As to WFWLRRSFGFYHVKSSNSFT, the amyloid nucleation score entry was “inactive”.

As for FSYRPSNCYIR, the amyloid nucleation score result was “inactive”.

In the case of GNIDCSTVFVSRNNCD, the amyloid nucleation score result is “inactive”.

As to CQRPWNRTRR, the amyloid nucleation score result is “inactive”.

As to SNYPWCSSSYYLGKISDLCS, the amyloid nucleation score entry was “inactive”.

For the substance RNGTHCTIDEIYGW, the amyloid nucleation score was determined as 0.038 ± 0.58.

Turning to VPKKEKWRFDIVL, the amyloid nucleation score entry was “inactive”.

For LFGTRIYGLFLCSLNLCRRV, the amyloid nucleation score entry was “inactive”.

Take TFWYLFCDDDS: the amyloid nucleation score result was “inactive”.

As for SMVFLASLY, the amyloid nucleation score result is “inactive”.

In turn, ICGRTYVRVT had an amyloid nucleation score of -0.775 ± 1.1.

As to SDGLLLPRSRNVATVEMGDL, the amyloid nucleation score entry was “inactive”.

For NCVCEWTAFLYIPSIWGFEH, the amyloid nucleation score worked out at 1.78 ± 0.098.

The substance IKDIFACSMCFTTKSNAAHY showed an amyloid nucleation score of 3 ± 0.053.

MAVID: the amyloid nucleation score result was “inactive”.

Consider GISSKFRSPNRGNCYYRDIL, for which the amyloid nucleation score entry was “inactive”.

For the substance LFLKSLCCFRICTNFIKVEL, the amyloid nucleation score entry is “inactive”.

As to ESSRRYEVCCLMW, the amyloid nucleation score result was “inactive”.

Turning to VMAELVSVKVAQVIVR, the amyloid nucleation score entry was “inactive”.

Consider HMSQLTLYCCAKIRKVVPLL, for which the amyloid nucleation score result is “inactive”.

For the substance RSLDRRSCAMHILRGHQLKT, the amyloid nucleation score result was “inactive”.

With GLIDLRVCEGRQFARTGSEM, the amyloid nucleation score was 0.132 ± 0.36.

In the case of ATYNEMYVVPSRASPKGDWD, the amyloid nucleation score entry is “inactive”.

For NMENLKRGFVIWS, the amyloid nucleation score entry was “inactive”.

Take IVALQRSFSNNT: the amyloid nucleation score entry is “inactive”.

As to KYDCRGEMLFQ, the amyloid nucleation score result is “inactive”.

As to SLDLENILSAE, the amyloid nucleation score result was “inactive”.

Regarding RLNLNVIL, the amyloid nucleation score came out at 2.58 ± 0.087.

On to FYRSLGMYRDWTMSIFGKYL, for which the amyloid nucleation score result was “inactive”.

Regarding WLYRNA, the amyloid nucleation score result is “inactive”.

In the case of CILYLHIAALVLLI, the amyloid nucleation score is -1.33 ± 2.5.

Turning to KQVNSCDFLMWMLLALHFKG, the amyloid nucleation score entry is “inactive”.

Regarding YFYFDFNYNMYGVKALLVLC, the amyloid nucleation score entry was “inactive”.

In turn, CKMLNYFLCT returned an amyloid nucleation score of 1.1 ± 0.13.

In the case of QFFIFFACLVLVVITLT, the amyloid nucleation score is 2.53 ± 0.07.

The substance FLRFWARSNPGTWLIVHGMG came in with an amyloid nucleation score of -0.69 ± 1.4.

With WKRNKRGKV, the amyloid nucleation score was 1.4 ± 0.11.

CNVTLSSTYEK: the amyloid nucleation score result is “inactive”.

PTTKYFLYNIYSFV returned an amyloid nucleation score of 2.02 ± 0.079.

Turning to TVPDRDFMFIRIRSHCYVVD, the amyloid nucleation score result was “inactive”.

For the substance GASSIFLIVRSDGSYFSPD, the amyloid nucleation score result is “inactive”.

Consider TFCLFRS, for which the amyloid nucleation score is -0.343 ± 0.63.

As to PTDIGGNPAGPGEFLIGTGW, the amyloid nucleation score entry is “inactive”.

For the substance TFWLH, the amyloid nucleation score is 0.156 ± 0.88.

Consider TDCELGLLRL, for which the amyloid nucleation score entry is “inactive”.

In the case of WKVMLRLALRMQCTHLAVCW, the amyloid nucleation score result was “inactive”.

For SLYKYRIWCMVFVVYFSQSQ, the amyloid nucleation score entry is “inactive”.

For SDFSVRVLDNWIHNMTGRIG, the amyloid nucleation score result is “inactive”.

Consider FGMSILVFFTVDRSLET, for which the amyloid nucleation score entry is “inactive”.

As to GWNVWQGMNKNFGTYFSR, the amyloid nucleation score result was “inactive”.

For ASNEERLLFKCLLKV, the amyloid nucleation score is -0.411 ± 0.73.

LPRPFSYSGLR had an amyloid nucleation score of -0.289 ± 0.59.

Consider FHTFSVCVGRGTMYYRALEE, for which the amyloid nucleation score came to 0.277 ± 0.23.

For SQWIGFIEGCGNWMGYLACV, the amyloid nucleation score result was “inactive”.

Take LFEVSS: the amyloid nucleation score result is “inactive”.

On to THGVR, for which the amyloid nucleation score result was “inactive”.

As for SETDFYHGFIWGIPIGALSG, the amyloid nucleation score entry was “inactive”.

For the substance GSAVVAAECIGKRC, the amyloid nucleation score entry is “inactive”.

On to FTIGRYILFVMKDFVFLWFV, for which the amyloid nucleation score entry is “inactive”.

With TAYSLMSIVFGWQPPKCGYE, the amyloid nucleation score was 0.648 ± 0.2.

Consider IIPYCRS, for which the amyloid nucleation score entry is “inactive”.

On to YTDIVSAIEEVF, for which the amyloid nucleation score entry is “inactive”.

With WHWRGTICVLCAGYRWIAHS, the amyloid nucleation score entry is “inactive”.

Consider FFILFMRRLDW, for which the amyloid nucleation score was 0.323 ± 0.22.

As for NVGNRCYWWVLMARLLSIFR, the amyloid nucleation score result is “inactive”.

On to EILVVVPIAGEMSIVFMRGW, for which the amyloid nucleation score result was “inactive”.

Regarding IQKLSFYTVCFMYDWLLTFK, the amyloid nucleation score entry is “inactive”.

As to LSGELCSW, the amyloid nucleation score entry is “inactive”.

Turning to AFYFNEMYRLVLMGTM, the amyloid nucleation score result was “inactive”.

With RSGLVRSRCSRI, the amyloid nucleation score entry was “inactive”.

LSYHTCSVMYALRMSALDCR: the amyloid nucleation score entry is “inactive”.

For TLRDKNLLEPIKCDWYTIKT, the amyloid nucleation score entry is “inactive”.

As to FSCIKTRMVGYSLRLNQFVD, the amyloid nucleation score entry is “inactive”.

On to QFAKIPIALTSVYRIKDGLY, for which the amyloid nucleation score entry is “inactive”.

Regarding RLSRWRRSNFSE, the amyloid nucleation score result is “inactive”.

Turning to CLFQIIVNTSYIGKFHTVLG, the amyloid nucleation score amounted to 1.88 ± 0.057.

SSAPEQRF: the amyloid nucleation score entry was “inactive”.

AGHYLLSPGYQMMLERSNRS: the amyloid nucleation score result is “inactive”.

For MHPCSL, the amyloid nucleation score result is “inactive”.

Regarding YVRDLGSWMT, the amyloid nucleation score result was “inactive”.

Take SSGSFS: the amyloid nucleation score result was “inactive”.

For SRMSGVVGIAKV, the amyloid nucleation score entry was “inactive”.

As to GYSSTRNLAA, the amyloid nucleation score entry was “inactive”.

On to NRQMLYILEINSIIFIQSFC, for which the amyloid nucleation score turned out to be 0.903 ± 0.16.

For the substance LFMGCPVEV, the amyloid nucleation score was -0.515 ± 0.62.

Take RDYLYGNDMSNVKGYRRRWY: the amyloid nucleation score result was “inactive”.

Consider FIVVQGIAPCGFTS, for which the amyloid nucleation score entry is “inactive”.

Regarding INFCIINNTMV, the amyloid nucleation score was 1.75 ± 0.071.

In turn, HCSQLFESTYKRMSHISRDL registered an amyloid nucleation score of -0.56 ± 0.73.

For SLKPLVYMGLST, the amyloid nucleation score result was “inactive”.

As to VFTVF, the amyloid nucleation score result was “inactive”.

Consider VMFMIAGNC, for which the amyloid nucleation score result was “inactive”.

Take DKGVVPL: the amyloid nucleation score result was “inactive”.

Consider TLGTLSICLCIFRYPGKTEA, for which the amyloid nucleation score entry is “inactive”.

Consider FRFTFLMRNML, for which the amyloid nucleation score entry was “inactive”.

Take VQVLYVICLSSSMLYRLVVR: the amyloid nucleation score result is “inactive”.

Regarding SCGGCLFPDHKCCTSYARWV, the amyloid nucleation score entry was “inactive”.

For DSADVMIAYASVVVVTIECC, the amyloid nucleation score result is “inactive”.

(Values after the supplement of paper PMC12042874.)
